Assay results published in patent publication US20160145328A1 (published 2016).
Residue numbers refer to the chain shown, from its start. Read-outs that look alike come from different tables or passages of the source.

Key:
protein A [1] = molecular target: T1, protein A (UniProt P38507 37-477); assay: Heat/Cool phage ELISA on protein A; signal after 80 C 10 min / 4 C 10 min as % of untreated sample
T1 construct: also called Protein A superantigen
Method: (§1) The aggregation-resistance of clones was analyzed by measuring retention of signal after heat incubation in a phage ELISA format (McCafferty et al., 1990; Jespers et al., 2004). Wells of a Nunc Maxisorp Immuno-plate were coated overnight with protein A at a concentration of about 5 μg/ml in phosphate-buffered saline (PBS). The plate was washed once with PBS and blocked with about 4% (w/v) milk powder diluted in PBS (MPBS). Single colonies were picked from agar plates and grown overnight in 2×TY medium (containing about 16 g/L tryptone; about 10 g/L yeast extract; about 5 g/L NaCl, pH 7.0) supplemented with about 15 μg/ml tetracycline shaking at about 30° C. Cells were removed by centrifugation and phages were biotinylated directly in the culture supernatant by adding biotin-PEO₄-N-hydroxysuccinimide (Pierce; about 50 μM final concentration). For heat selection, supernatant was first incubated at about 80° C. for about 10 min and then at about 4° C. for about 10 min. Supernatant was added to the blocked ELISA wells. After three washes with PBS, bound phage particles were detected using an Extravidin-HRP conjugate (Sigma) and 3,3′,5,5′-tetramethylbenzidine (TMB) substrate. Absorbance was calculated by subtracting measurements at 450 and 650 nm.
Antigen-specific VH domains were selected from the Garvan-2 library by phage display against recombinant protein antigen. After selection, the domains were evaluated for aggregation-resistance using the “Heat/Cool” assay described in Example 1.2, and binding to either or protein A superantigen and or recombinant antigen.

human prolactin receptor = molecular target: T2, human prolactin receptor (human, UniProt P16471 25-234); assay: SPR (Biacore 2000), biotinylated antigen on streptavidin chip, purified VH
T2 construct: also called hPRLR; PRLR (Prolactin Receptor)
T2 sequence (looked up): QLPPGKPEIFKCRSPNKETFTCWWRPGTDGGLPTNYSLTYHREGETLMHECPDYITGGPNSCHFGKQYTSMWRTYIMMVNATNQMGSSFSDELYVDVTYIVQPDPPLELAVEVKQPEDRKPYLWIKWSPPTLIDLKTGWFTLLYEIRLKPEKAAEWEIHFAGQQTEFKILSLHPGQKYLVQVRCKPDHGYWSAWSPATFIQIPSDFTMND
Method: (§2) The affinities of VH clones were measured using surface plasmon resonance (using a Biacore2000 instrument; GE Healthcare). For this purpose, biotinylated antigen diluted in PBS was injected over a streptavidin (SA) sensor chip (Biacore AB). Serial dilutions of purified VH were injected over the flow cell containing the corresponding target antigen. Equilibrium dissociation constants were calculated using the BIAevaluation 4.1 software package (Biacore AB).
(§3) The antigen-specific VH domains were expressed and purified. Affinity measurements were performed by surface plasmon resonance on a Biacore 2000 instrument.

protein A [2] = molecular target: T1, protein A; assay: Heat/Cool phage ELISA: phage-displayed VH, 80 C 10 min then 4 C 10 min, captured on coated protein A; signal as % of untreated sample
Method: as §1, with “nm. […]” for “nm.”

protein A [3] = molecular target: T1, protein A; assay: Heat/Cool phage ELISA: phage-displayed scFv, 80 C 10 min then 4 C 10 min, captured on coated protein A; signal as % of untreated sample
Method: as §1, with “Cells were removed by centrifugation and phages were biotinylated directly in the culture supernatant by adding biotin-PEO₄-N-hydroxysuccinimide (Pierce; about 50 μM final concentration). For heat selection, supernatant was first incubated at about 80° C. for about 10 min and then at about 4° C. for about 10 min. Supernatant was added to the blocked ELISA wells.” left out
The DP47-CDR1 mutants described above were paired with a common single variable light chain (VL; SEQ ID NO: 3) via a linker (SEQ ID NO: 4) in a scFv format (see the Materials and Methods section for full experimental details). […] Correctly folded scFv were captured by protein A ELISA and the absorbance signal of the treated sample was calculated as a percentage of the untreated sample.

protein A [4] = molecular target: T1, protein A; assay: Heat/Cool phage ELISA: phage-displayed VH, 80 C 10 min then 4 C 10 min, captured on coated protein A; signal as % of untreated sample; remark: listed apart in the source
Method: as §1, with “For heat selection, supernatant was first incubated at about 80° C. for about 10 min and then at about 4° C. for about 10 min. Supernatant was added to the blocked ELISA wells.” left out
VH domains were produced comprising negatively charged amino acids at positions 28 and/or 35 in CDR1 of DP47 and at least one other position, as set out in Table 7. Aggregation-resistance of the VH domains was assessed using the “Heat/Cool” assay as described in Example 1.2.

protein A [5] = molecular target: T1, protein A; assay: as above; remark: listed apart in the source
Method: as §1, with “Cells were removed by centrifugation and phages were biotinylated directly in the culture supernatant by adding biotin-PEO₄-N-hydroxysuccinimide (Pierce; about 50 μM final concentration). For heat selection, supernatant was first incubated at about 80° C. for about 10 min and then at about 4° C. for about 10 min. Supernatant was added to the blocked ELISA wells.” left out
To identify additional residues in CDR1 that confer aggregation-resistance on VH, surface-exposed residues of DP47 between positions 26 to 35 (numbering according to the Kabat numbering system) were substituted for aspartic acid (D) or glutamic acid (E). […] Correctly folded VH were captured by protein A ELISA and the absorbance signal of the treated sample was calculated as a percentage of the untreated sample.

[6] = molecular target: T3, human tumor necrosis factor α (human, UniProt P01375 77-233); assay: SPR (Biacore), biotinylated hTNF on streptavidin chip, purified VH injected from 4 µM down
T3 construct: also called hTNF; human TNF
Method: The affinities of VH clones G07 (anti-hTNF; SEQ ID NO: 5) and G11 (anti-mIL-21; SEQ ID NO: 6) were measured using surface plasmon resonance (using a Biacore machine; GE Healthcare). For this purpose, biotinylated antigen diluted in PBS was injected over a streptavidin (SA) sensor chip (Biacore AB). Serial dilutions of purified VH (with concentrations ranging from about 0.125 to 4 μM) were injected at a flowrate of about 20 μl/min over the flow cell containing the corresponding target antigen. Equilibrium dissociation constants were calculated using the BIAevaluation 4.1 software package (Biacore AB).
Two clones selected for their binding to human tumour necrosis factor (hTNF) or mouse interleukin 21 (mIL-21) were isolated from the Garvan-I libraries, as detailed above (see Materials and Methods section). […] Biacore affinity measurements of anti-human TNF clone G07 (SEQ ID NO: 5) and anti-mouse IL-21 clone G11 (SEQ ID NO: 6) were performed. Serial dilutions of each purified protein, starting at 4 μM, were run on a streptavidin (SA) chip coated with biotinylated hTNF and mIL-21, respectively.

Hen-Egg-Lysozyme = molecular target: T4, Hen-Egg-Lysozyme (hen, UniProt P00698 19-147); assay: SPR (Biacore 2000), biotinylated antigen on streptavidin chip, purified VH
T4 construct: Biotinylated for Biacore; also called HEL
Method: as §2, §3

T4 sequence (P00698 19-147): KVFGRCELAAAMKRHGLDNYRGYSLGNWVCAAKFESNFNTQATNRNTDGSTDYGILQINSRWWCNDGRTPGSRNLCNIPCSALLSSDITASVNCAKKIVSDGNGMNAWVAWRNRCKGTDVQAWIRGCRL
T3 sequence (P01375 77-233 limits assumed): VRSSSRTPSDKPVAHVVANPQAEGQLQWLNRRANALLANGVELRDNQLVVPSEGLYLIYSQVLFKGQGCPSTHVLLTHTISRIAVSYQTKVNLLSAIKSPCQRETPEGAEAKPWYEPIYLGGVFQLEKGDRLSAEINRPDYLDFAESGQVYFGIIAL

B1: VHPRLR_C02 (anti-hPRLR VH) (other)
VH: EVQLLESGGGLVQPGGSLRLSCAASGFRFADEDMGWVRQAPGKGLEWVSDISGDGYSTYYADSVKGRFTISRDNSKNTLYLQMNSLRAEDTAVYYCAKLPPVYLGGAFDYWGQGTLVTVSS
notes: Human VH single domain antibody from the Garvan-2 library
Protein A [1]
  Retained binding (%) after heating: 98.8%
Human prolactin receptor
  Kd: < 100 nM

B2: DP47 VH G52aD (other, name in Kabat numbering)
VH: QVQLLESGGGLVQPGGSLRLSCAASGFTFSSYAMSWVRQAPGKGLEWVSAISDSGGSTYYADSVKGRFTISRDNSKNTLYLQMNSLRAEDTAVYYCAKSYGAFDYWGQGTLVTVSS
Protein A [2]
  Retained binding to protein A (%): 2.1%

B3: scFv DP47 VH SYA31-33DED - linker - common VL (scFv)
scFv: QVQLLESGGGLVQPGGSLRLSCAASGFTFSDEDMSWVRQAPGKGLEWVSAISGSGGSTYYADSVKGRFTISRDNSKNTLYLQMNSLRAEDTAVYYCAKSYGAFDYWGQGTLVTVSSGGGGSGGGGSGGGGSTDIQMTQSPSSLSASVGDRVTITCRASQSISSYLNWYQQKPGKAPKLLIYAYSDLQSGVPSGFSGSGSGTDFTLTISSLQPEDFATYYCQQLMTHPTTFGQGTKVEIKR
notes: also called SYA31-33DED (scFv)
Protein A [3]
  Retained binding to protein A: 45%

B4: scFv HEL4 VH - linker - common VL (scFv)
scFv: QVQLLESGGGLVQPGGSLRLSCAASGFRISDEDMGWVRQAPGKGLEWVSSIYGPSGSTYYADSVKGRFTISRDNSKNTLYLQMNSLRAEDTAVYYCASALEPLSEPLGFWGQGTLVTVSSGGGGSGGGGSGGGGSTDIQMTQSPSSLSASVGDRVTITCRASQSISSYLNWYQQKPGKAPKLLIYAYSDLQSGVPSGFSGSGSGTDFTLTISSLQPEDFATYYCQQLMTHPTTFGQGTKVEIKR
notes: also called HEL4 (scFv)
Protein A [3]
  Retained binding to protein A: 56%

B5: HEL4 VH (other)
VH: QVQLLESGGGLVQPGGSLRLSCAASGFRISDEDMGWVRQAPGKGLEWVSSIYGPSGSTYYADSVKGRFTISRDNSKNTLYLQMNSLRAEDTAVYYCASALEPLSEPLGFWGQGTLVTVSS
Protein A [1]
  Retained binding (%) after heating: 88.1%
Protein A [4]
  Retained binding to protein A (%): 87.7%
Protein A [2]
  Retained binding to protein A (%): 80.8%
Protein A [5]
  Retained binding to protein A (%): 80.2%

B6: VHhTNF_G07 (anti-hTNF VH) (other, not shown: small tags and cut ends)
VH: B5 VH with A99K, L100E, E101D, P102Y, L103D, S104T, E105Y, P106N, L107W
notes: also called clone G07; anti-human TNF clone G07
[6]
  Kd: 1860 nM

B7: VHHEL_H04 (anti-HEL VH) (other)
VH: EVQLLESGGGLVQPGGSLRLSCAASGFRFDAEDMGWVRQAPGKGLEWVSSIYGPSGSTYYADSVKGRFTISRDNSKNTLYLQMNSLRAEDTAVYYCAKYTSPPQNHGFDYWGQGTLVTVSS
notes: as for B1
Protein A [1]
  Retained binding (%) after heating: 87.8%
Hen-Egg-Lysozyme
  Kd: 28 nM

B8: VHHEL_G08 (anti-HEL VH) (other)
VH: EVQLLESGGGLVQPGGSLRLSCAASGFRISDEDMGWVRQAPGKGLEWVSYIDNNGYSTYYADSVKGRFTISRDNSKNTLYLQMNSLRAEDTAVYYCAKKQYGYQNGGFDYWGQGTLVTVSS
Protein A [1]
  Retained binding (%) after heating: 83.8%
Hen-Egg-Lysozyme
  Kd: 65 nM
